Laboratory results from IntAct's records for PubMed 10521435.

B1: Chaperone protein DnaJ (Escherichia coli (strain K12)), P08622 (parent)
chain: MAKQDYYEILGVSKTAEEREIRKAYKRLAMKYHPDRNQGDKEAEAKFKEIKEAYEVLTDSQKRAAYDQYGHAAFEQGGMGGGGFGGGADFSDIFGDVFGDIFGGGRGRQRAARGADLRYNMELTLEEAVRGVTKEIRIPTLEECDVCHGSGAKPGTQPQTCPTCHGSGQVQMRQGFFAVQQTCPHCQGRGTLIKDPCNKCHGHGRVERSKTLSVKIPAGVDTGDRIRLAGEGEAGEHGAPAGDLYVQVQVKQHPIFEREGNNLYCEVPINFAMAALGGEIEVPTLDGRVKLKVPGETQTGKLFRMRGKGVKSVRGGAQGDLLCRVVVETPVGLNERQKQLLQELQESFGGPTGEHNSPRSKSFFDGVKKFFDDLTR

Variants of: B1
Conditions: with dnak_ecoli dnaK

Effect of a mutation on the interaction, decreasing interaction:
K62A
K62A;R63A
R63A
